Measurements published in patent publication US7648963B2, “Molecules of the PYRIN/NBS/LRR protein family and uses thereof” (Millennium Pharmaceuticals, Inc., priority 2001, dated 2010).
Residues, ends and D or L forms follow the SMILES beside them. *: point of attachment. Cbz = O=C(OCc1ccccc1)*; CH2F = FC*

Tests used:
caspase-1 = test: IL-1β secretion assay in COS-7L cells (ELISA for mouse IL-1β); assay type: cell-based; conditions: for IL-1β production (caspase-1 activation): co-expression with caspase-1 and CARD-5 at low protein levels, FIG. 14B
Experimental: Experiments were next carried out using an IL-1β secretion assay to determine whether CARD-5 and PYRIN-8 induce activation of caspase-1. Active caspase-1 cleaves pro-IL-1β, resulting in the secretion of bioactive IL-1β from cells. In the IL-1β secretion assays, COS-7L cells (GIBCO) were co-transfected in 12-well (22-mm) plates using LipofectAMINE […] reagent (Invitrogen) with plasmids encoding mouse pro-IL-1β and indicated expression plasmids (total DNA=1.04 μg). Supernatants were collected 24 hours after transfection and subjected to ELISA for mouse IL-1β according to the manufacturer's protocol (R&D Systems).
The caspase-1 inhibitor Z-WEHD-FMK was added to cells following transfection at a final concentration of 100 μM.

CARD-5 = molecular target: T1, CARD-5 (Homo sapiens, UniProt Q9ULZ3); test: Cellular co-localization (immunostaining) in 293T embryonic kidney cells; assay type: cell-based; conditions: 293T cells; FLAG-tagged PYRIN-8 construct co-expressed with HA-tagged CARD-5
T1 construct: expressed in transfected cells; host or cells: 293T
T1 sequence (Q9ULZ3 whole entry): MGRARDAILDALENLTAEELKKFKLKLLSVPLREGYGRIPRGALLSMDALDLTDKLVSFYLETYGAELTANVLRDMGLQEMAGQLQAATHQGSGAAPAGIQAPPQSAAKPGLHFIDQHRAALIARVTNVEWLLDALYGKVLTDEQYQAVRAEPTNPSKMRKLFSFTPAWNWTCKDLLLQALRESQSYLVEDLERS
Experimental: Cellular co-localization studies were carried out to determine whether PYRIN-8 interacts with CARD-5 (also known as ASC) when the two proteins were overexpressed in 293T embryonic kidney cells. Plasmids expressing either full-length PYRIN-8 (PYRIN-8FL, residues 1-1061 of SEQ ID NO:18) or a PYRIN-8 truncation mutant lacking the PYRIN domain (PYRIN-8ΔPYRIN, residues 89-1061 of SEQ ID NO:18) with a C-terminal FLAG epitope were constructed using pCI (Promega). FLAG-tagged PYRIN-8 and HA-tagged CARD-5 were expressed in cells and detected using a mixture of anti-HA and anti-FLAG antibodies.
In immunostaining assays to detect cellular localization, 293T cells were transfected in poly-D-lysine-coated glass chamber slides (BioCoat, Becton-Dickinson Labware) with plasmids expressing HA-tagged CARD-5 and either FLAG-tagged PYRIN-8 or PYRIN-8ΔPYRIN using SuperFect transfection reagent (Qiagen). Cells were fixed 24 hours after transfection in 4% paraformaldehyde, permeabilized and blocked in a buffer containing 0.3% Triton X-100, and incubated with the following primary and secondary antibodies: rabbit anti-HA polyclonal Y-11 (Santa Cruz Biotechnology), mouse anti-FLAG monoclonal antibody M2 (Sigma), Alexa-350 goat anti-rabbit IgG (Molecular Probes), and Alexa-598 goat anti-mouse IgG (Molecular Probes). […]

COC(=O)CC[C@H](NC(=O)[C@H](Cc1c[nH]c2ccccc12)NC(=O)OCc1ccccc1)C(=O)N[C@@H](Cc1cnc[nH]1)C(=O)N[C@@H](CC(=O)OC)C(=O)CF [Z-WEHD, Z-WEHD-FMK, reference compound] (Cbz-WE(OMe)HD(OMe)-CH2F)
effect on IL-1β secretion induced by PYRIN-8 and CARD-5 (caspase-1; inhibitor added following transfection at a final concentration of 100 μM, FIG. 14C): blocked the ability of PYRIN-8 and CARD-5 to induce the secretion of IL-1β

B1: PYRIN-8ΔPYRIN: PYRIN-8 truncation mutant lacking the PYRIN domain, residues 89-1061 of SEQ ID NO:18 (protein, listed as Homo sapiens)
chain: GQREDLVRDTPPGGPSSLGNQSTCLLEVSLVTPRKDPQETYRDYVRRKFRLMEDRNARLGECVNLSHRYTRLLLVKEHSNPMQVQQQLLDTGRGHARTVGHQASPIKIETLFEPDEERPEPPRTVVMQGAAGIGKSMLAHKVMLDWADGKLFQGRFDYLFYINCREMNQSATECSMQDLIFSCWPEPSAPLQELIRVPERLLFIIDGFDELKPSFHDPQGPWCLCWEEKRPTELLLNSLIRKKLLPELSLLITTRPTALEKLHRLLEHPRHVEILGFSEAERKEYFYKYFHNAEQAGQVFNYVRDNEPLFTMCFVPLVCWVVCTCLQQQLEGGGLLRQTSRTTTAVYMLYLLSLMQPKPGAPRLQPPPNQRGLCSLAADGLWNQKILFEEQDLRKHGLDGEDVSAFLNMNIFQKDINCERYYSFIHLSFQEFFAAMYYILDEGEGGAGPDQDVTRLLTEYAFSERSFLALTSRFLFGLLNEETRSHLEKSLCWKVSPHIKMDLLQWIQSKAQSDGSTLQQGSLEFFSCLYEIQEEEFIQQALSHFQVIVVSNIASKMEHMVSSFCLKRCRSAQVLHLYGATYSADGEDRARCSAGAHTLLVQLPERTVLLDAYSEHLAAALCTNPNLIELSLYRNALGSRGVKLLCQGLRHPNCKLQNLRLKRCRISSSACEDLSAALIANKNLTRMDLSGNGVGFPGMMLLCEGLRHPQCRLQMIQLRKCQLESGACQEMASVLGTNPHLVELDLTGNALEDLGLRLLCQGLRHPVCRLRTLWLKICRLTAAACDELASTLSVNQSLRELDLSLNELGDLGVLLLCEGLRHPTCKLQTLRLGICRLGSAACEGLSVVLQANHNLRELDLSFNDLGDWGLWLLAEGLQHPACRLQKLWLDSCGLTAKACENLYFTLGINQTLTDLYLTNNALGDTGVRLLCKRLSHPGCKLRVLWLFGMDLNKMTHSRLAALRVTKPYLDIGC
co-localization with CARD-5 punctate structures (CARD-5): failed to associate with the CARD-5 punctate structures | IL-1β production (caspase-1 activation) (caspase-1): eliminated the synergistic production of IL-1β

B2: PYRIN-8: full-length human PYRIN-8 protein, residues 1-1061 of SEQ ID NO:18, expressed from plasmid (protein, listed as Homo sapiens)
chain: MLRTAGRDGLCRLSTYLEELEAVELKKFKLYLGTATELGEGKIPWGSMEKAGPLEMAQLLITHFGPEEAWRLALSTFERINRKDLWERGQREDLVRDTPPGGPSSLGNQSTCLLEVSLVTPRKDPQETYRDYVRRKFRLMEDRNARLGECVNLSHRYTRLLLVKEHSNPMQVQQQLLDTGRGHARTVGHQASPIKIETLFEPDEERPEPPRTVVMQGAAGIGKSMLAHKVMLDWADGKLFQGRFDYLFYINCREMNQSATECSMQDLIFSCWPEPSAPLQELIRVPERLLFIIDGFDELKPSFHDPQGPWCLCWEEKRPTELLLNSLIRKKLLPELSLLITTRPTALEKLHRLLEHPRHVEILGFSEAERKEYFYKYFHNAEQAGQVFNYVRDNEPLFTMCFVPLVCWVVCTCLQQQLEGGGLLRQTSRTTTAVYMLYLLSLMQPKPGAPRLQPPPNQRGLCSLAADGLWNQKILFEEQDLRKHGLDGEDVSAFLNMNIFQKDINCERYYSFIHLSFQEFFAAMYYILDEGEGGAGPDQDVTRLLTEYAFSERSFLALTSRFLFGLLNEETRSHLEKSLCWKVSPHIKMDLLQWIQSKAQSDGSTLQQGSLEFFSCLYEIQEEEFIQQALSHFQVIVVSNIASKMEHMVSSFCLKRCRSAQVLHLYGATYSADGEDRARCSAGAHTLLVQLPERTVLLDAYSEHLAAALCTNPNLIELSLYRNALGSRGVKLLCQGLRHPNCKLQNLRLKRCRISSSACEDLSAALIANKNLTRMDLSGNGVGFPGMMLLCEGLRHPQCRLQMIQLRKCQLESGACQEMASVLGTNPHLVELDLTGNALEDLGLRLLCQGLRHPVCRLRTLWLKICRLTAAACDELASTLSVNQSLRELDLSLNELGDLGVLLLCEGLRHPTCKLQTLRLGICRLGSAACEGLSVVLQANHNLRELDLSFNDLGDWGLWLLAEGLQHPACRLQKLWLDSCGLTAKACENLYFTLGINQTLTDLYLTNNALGDTGVRLLCKRLSHPGCKLRVLWLFGMDLNKMTHSRLAALRVTKPYLDIGC
co-localization with CARD-5 punctate structures (CARD-5): co-localize with CARD-5 | IL-1β production (caspase-1 activation) (caspase-1): increase in IL-1β production
